According to patent publication US20170101470A1 (PROTHENA BIOSCIENCES, published 2017):
Numbering of substitutions follows the chain as printed.

T1: recombinant hMCAM-His (human, UniProt P43121 24-559)
T1 chain: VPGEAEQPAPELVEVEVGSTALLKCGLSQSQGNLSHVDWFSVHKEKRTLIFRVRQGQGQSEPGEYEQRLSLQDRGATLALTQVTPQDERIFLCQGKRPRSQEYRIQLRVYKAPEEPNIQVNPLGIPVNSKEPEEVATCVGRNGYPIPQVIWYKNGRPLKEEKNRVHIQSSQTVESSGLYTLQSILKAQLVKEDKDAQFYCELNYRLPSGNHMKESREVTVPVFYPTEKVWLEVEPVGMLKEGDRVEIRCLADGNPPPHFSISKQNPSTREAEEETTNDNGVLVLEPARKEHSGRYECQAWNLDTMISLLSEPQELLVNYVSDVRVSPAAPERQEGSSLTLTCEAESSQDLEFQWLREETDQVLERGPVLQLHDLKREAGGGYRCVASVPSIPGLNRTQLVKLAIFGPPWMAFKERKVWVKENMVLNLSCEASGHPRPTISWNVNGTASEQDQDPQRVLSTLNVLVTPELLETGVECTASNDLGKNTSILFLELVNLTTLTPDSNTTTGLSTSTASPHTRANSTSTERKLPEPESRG

B1: humanized anti-MCAM antibody h2120_VH1 + h2120_VL3 (antibody, V domains shown)
VH: QVTLKESGPVLVKPTETLTLTCTVSGFSLTSNGVSWVRQPPGKALEWIAAISSGGTTYYNSAFKSRLTISRDTSKSQVVLTMTNMDPVDTATYYCARRYGYGWYFDFWGQGTLVTVSS
VL: DIQMTQSPSSLSASVGDRVTINCKASQNIYNSLAWYQQKPGKAPKVLIFNANSLQTGIPSRFSGSGSGTDFTLTISSLQPEDFATYYCQQFYSGYTFGQGTKLEIK
notes: V regions cloned into vectors containing human CK (VL) or human IgG1 (VH); also called h2120VH1VL3; Standard VH + conservative VL
B2: humanized anti-MCAM antibody h2120_VH5 + h2120_VL3 (antibody, V domains shown)
VH: B1 VH with G33A
VL: B1 VL
notes: Human IgG1 / human kappa; also called h2120VH5VL3; VH5VL3
B3: human MCAM expressed on CHO cells (full length human MCAM gene) (receptor)
chain: VPGEAEQPAPELVEVEVGSTALLKCGLSQSQGNLSHVDWFSVHKEKRTLIFRVRQGQGQSEPGEYEQRLSLQDRGATLALTQVTPQDERIFLCQGKRPRSQEYRIQLRVYKAPEEPNIQVNPLGIPVNSKEPEEVATCVGRNGYPIPQVIWYKNGRPLKEEKNRVHIQSSQTVESSGLYTLQSILKAQLVKEDKDAQFYCELNYRLPSGNHMKESREVTVPVFYPTEKVWLEVEPVGMLKEGDRVEIRCLADGNPPPHFSISKQNPSTREAEEETTNDNGVLVLEPARKEHSGRYECQAWNLDTMISLLSEPQELLVNYVSDVRVSPAAPERQEGSSLTLTCEAESSQDLEFQWLREETDQVLERGPVLQLHDLKREAGGGYRCVASVPSIPGLNRTQLVKLAIFGPPWMAFKERKVWVKENMVLNLSCEASGHPRPTISWNVNGTASEQDQDPQRVLSTLNVLVTPELLETGVECTASNDLGKNTSILFLELVNLTTLTPDSNTTTGLSTSTASPHTRANSTSTERKLPEPESRGVVIVAVIVCILVLAVLGAVLYFLYKKGKLPCRRSGKQEITLPPSRKTELVVEVKSDKLPEEMGLLQGSSGDKRAPGDQGEKYIDLRH
notes: also called hMCAM expressing CHO cells; CD146

How the values were obtained:
[1] = molecular target: T1, recombinant hMCAM-His; experiment: competitive ELISA on coated hMCAM-His, competitor biotinylated rodent or chimeric 2120; IC50 relative to rodent 2120
Protocol: (§1) The apparent affinities of the humanized antibodies were compared to the parental rodent or chimeric antibody in a competitive ELISA according to the following protocol: ELISA plates were coated with recombinant hMCAM-His, and blocked with casein buffer to prevent non-specific binding. Biotinylated rodent or chimeric antibody was added at a subsaturating concentration, in the presence or absence of 3× increasing concentrations of unlabeled competitor (humanized antibody, rodent, or chimeric). After washing to remove unbound antibody, streptavidin HRP was added to allow detection of the biotinylated antibody. The ELISA was developed with TMB substrate and the OD450 was measured. The IC50 of the unlabeled competitor was determined using the GraphPad Prism5 software.

[2] = molecular target: T1, recombinant hMCAM-His; experiment: ForteBio Octet Red, antibody on anti-human Fc sensors, hMCAMHis analyte, 1:1 fit; affinity relative to rodent 2120, Expt. #1
Protocol: (§2) The affinities were measured using the ForteBio Octet Red. Anti-human Fc sensors were used to capture the humanized antibodies, and several concentrations of hMCAMHis analyte were used to determine the affinity using a 1:1 fitting model.

[3] = molecular target: T1, recombinant hMCAM-His; experiment: ForteBio Octet Red, antibody on anti-human Fc sensors, hMCAMHis analyte, 1:1 fit; affinity relative to rodent 2120, second Forte column
Protocol: as §2

[4] = molecular target: B3; experiment: laminin/FACS assay: blocking of recombinant laminin 411 binding to hMCAM expressing CHO cells, relative to rodent 2120, Expt#2
Protocol: (§3) Following incubation for 30-45 minutes, the cells were washed and anti-laminin conjugated to AF650 (NovusBio) was added to detect the bound laminin. The cells were run on a flow cytometer to measure the laminin binding signal.

[5] = molecular target: T1, recombinant hMCAM-His; experiment: ForteBio Octet Red, antibody on anti-human Fc sensors, hMCAMHis analyte, 1:1 fit; affinity relative to rodent 2120, Expt. #2
Protocol: as §2

[6] = molecular target: T1, recombinant hMCAM-His; experiment: ForteBio Octet Red, antibody on anti-human Fc sensors, hMCAMHis analyte, 1:1 fit; affinity relative to rodent 2120, first Forte column
Protocol: as §2

[7] = molecular target: T1, recombinant hMCAM-His; experiment: competitive ELISA on coated hMCAM-His, competitor biotinylated rodent or chimeric 2120; IC50 relative to rodent 2120, Expt. #1
Protocol: as §1

[8] = molecular target: T1, recombinant hMCAM-His; experiment: competitive ELISA on coated hMCAM-His, competitor biotinylated rodent or chimeric 2120; IC50 relative to rodent 2120, Expt. #2
Protocol: as §1

[9] = molecular target: B3; experiment: laminin/FACS assay: blocking of recombinant laminin 411 binding to hMCAM expressing CHO cells, relative to rodent 2120, Expt#1
Protocol: as §3

[10] = molecular target: B3; experiment: summary of laminin blocking assay on hMCAM expressing CHO cells
Protocol: as §3

[11] = molecular target: T1, recombinant hMCAM-His; experiment: summary of ForteBio and competitive ELISA on hMCAM-His
Protocol: as §1, §2

[12] = molecular target: T2, recombinant laminin 511 (UniProt O15230 36-3695; P07942 22-1786; P11047 34-1609); experiment: flow cytometry with a pan-laminin antibody on CHO cells transfected with human MCAM
T2 construct: also called laminin 10 (α5β1γ1)

Binder	Fold over rodent (ELISA) [1] [fold]	Fold over rodent (Forte) [2] [fold]	Fold over rodent (Forte) [3] [fold]	Fold over rodent (Blocking) [4] [fold]	Fold over rodent (Forte) [5] [fold]	Fold over rodent (Forte) [6] [fold]	Fold over rodent (ELISA) [7] [fold]	Fold over rodent (ELISA) [8] [fold]	Fold over rodent (Blocking) [9] [fold]	reduction in potency (fold, against rodent 2120) [10] [fold]	reduction in affinity (fold, against rodent 2120) [11] [fold]	binding result [12]
B1	1.8	5.64	5.8	2.8	6.21	5.9	2.23	2.42	1.7			
B2	2.4		1.2	1.5		1.1			1.2	< 2	< 2	
B3												no binding (tested: 10 µg/ml)
